Laboratory results reported in the nanobody polyreactivity screen of Harvey et al. (2022).

assay: yeast display, Sf9 membrane polyspecificity reagent, FACS + sequencing; frameworks hold sequencing errors
In short: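 Galactose-induced (36–48 hours) yeast carrying a synthetic nanobody display library were exposed to 10% biotinylated, detergent-solubilized Sf9 membrane reagent at 4 °C for 1 hour. FACS followed streptavidin microbead enrichment, using low and high (top ~1%) gates for expression (anti-HA) and reagent binding (streptavidin). Colony PCR, MiSeq 2 × 250 sequencing and CDR-length filtering followed. Labels for polyreactivity reflect the gate of origin.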

| Sequence | polyreactivity (PSR sort gate) |
| --- | --- |
| QVQLVESGGGLVQAGGSFRLTCAASGRIFSPNAMGWYRQATGKEREFVAAINDRGGNTYYADSVKGRFTISRDNAKNTVYLQMNSLKPEDTAVYYCAATVTVFYTRYYYWGQGTQVTVSS | high polyreactivity |
| QVQLVETGGGLVQAGGSLRLSCAASGIIIGYYAMGWYRQAPGKEREMVAAINQDGSSTYYADSVKGRFTISRDNAKNTVYLQMNSLTPEDTAVYYCNARGVPRQDARMGYWGQGTQVTVSS | low polyreactivity |
| QVQLVESGGGLVQAGGSLRLSCAASGSIFYFYAMGWYRQAPGKERELVAASRFTGGTTYYADSVKGRFTISRDNAKNTVYLQMNSLKPEDTAVYYCAKQTSYWSRGYDYWGQGTQVTVSS | low polyreactivity |
| QVQLVESGGGLVQAGGSLRLSCAASGFTFPWYAMGWYRQAPGKERELVATITRGGSTYYADSVKGRFTISRDNAKNTVYLQMNSLKPEDTAVYYCAVTYWRYHSYSPYDYWGQGTQVTVSS | high polyreactivity |
| QVQLEESGGGLVQAGGSLRLSCAAYGSIIPFYPMGWYRQAPWTERELVAAISDRGGSTYYADSVKGRFTISRDNAKYTVYLQMNSLKPEDTAVYYGAKGGEVSQGYTDEYDYWGQGTQVTVSS | low polyreactivity |
| QVQLVESGGGLVQAGGSLRLSCAASGSIRYYYVMGWYRQAPGKERELVAAITSGGSTYYADSVKGRFTISRDNAKNTVYLQMNSLKPEDTAVYYCNARTRSLTGSRFNYWGQVTQVTVSS | high polyreactivity |
| QVQLVESGGGLVQAGGSLRLSCAASGSIFGGNAMGWYRQAPGKERELVAAISGSGGSTYYADSVKGRFTISRDNAKNTVYLQMNSLKPEDTAVYYCAAGIYRGRNYYYWGQGTQVTVSS | high polyreactivity |
| QVQLVESGGGLVQAGGSLRLSCAASGRTFSAYAMGWYRQAPGKERELVAAISRSGGRTYYADSVKGRFTISRDNAKNTVYLEMNSLKPEDTAVYYCNARNLRDNQCTYDYWGQGTQVTVSS | high polyreactivity |
| QVQLVESGGGLVQAGGSLRLICAASGFTFRRYAMGWYRQAPGKEREFVAVITWSGTRTYYADSVKGRFTISRDNAKNTVYLQMNSLKPEDTAVYYCAAYITDVAGRAYDYWGQGTQVTVSS | high polyreactivity |
| QVQLVESGGGLVQAGGSLRLSCAASGRIFRYYAMGWYRQAPGKERELVAAITAGGGTTYYADSVKGRFTISSDNAKNTVYLQMNSLKPEDTAVYYCAKDGRYYSHYNYWGQGTQVTVSS | high polyreactivity |
| QVQLVESGGGLVQAGGSLRLSCAASGSIFSNNAMGWYRPAPGKERELVAAITRSGGNTYYADSVKGRFTISRDNAKNTVYLQMNSLKPEDTAVYYCAASNSHVGPNDYWGQGTQVTVSS | high polyreactivity |
| QVQLVESGGGLVQAGGSLRLSCAASGRTFGHNAMGWYRQAPGKEREFVAAITYSGVRTFYADSVKGRFTISRDNAKNTVYLQMNSLKPEDTAVYYCATDWRRDYDYWGQGTQVTVSS | low polyreactivity |
| QLQLVESGGGLVQAGGSLRLSCAASGFIFHRNAMGWYRQAPGKERELVAAISGSGGSTYYADSVNGRFTISRDNAKNTVYLQMNSLKPEDTAVYYCAKRGRSTYGYDYWGQGTQVNVSS | high polyreactivity |
| QVQLVESGGGLVQAGGSLRLSCAASGSIFYYNAMGWYRQAPGKERELVATITSAVSTNYADSVKWRFTISRDNAKNTVYLQMNSLKPEDTAVYYCAADVVYISGYDYWGQGTQVTVSS | low polyreactivity |
| QVQLVESGGGLVQAGGSLSLSCAASGGIFAANAMGWYRQAPGKERELVAAITRRGGSTTYADSVKGRFTISRDNAKNTVYLQMNRLKREDTAVYYCNTVYYRFYIELYFSSYDYWGQGTQVTVSS | high polyreactivity |
| QVQLVESGGGLVQAGGSLRLSCAASGSSFRRYAMGWYRQAPGKERELVATIRSGGSTTYADSVKGRFTISRDNAKNTVYLQMNSLKPEDTAVYFFAAGTKPSYYYWGQGTQVTVSS | low polyreactivity |
| QVQLVESGGGLVQAGGILRLSCAASGSIFPFNAMGWYRQAPGKERDLVAAITRSGGSTYYADSVKGRFTISRDNAKNTVYLQMNSLKPEDTSVYYCATDPEWPLPAYYYWGQGTQVTVSS | low polyreactivity |
| QVQLVESGGGLVQAGGSLRLSCAASGRIFRINAMGWYRQAPGKERELVASITSRAGSTYYADSVKGRFTISRDNAKNTVYLQMNSLKPEDTAVYYCAAASRRGYYYWGQGTQVTVSS | high polyreactivity |
| QVQLVESGGGLVQAGGSLRLSCAASGRTFKPYAMGWYRQAPGKERELVAVITSNGSSTYYADSVKGRFTISRDNAKNTVYLQMNSLKPEDTAVYYCATKLTYTLTSGAYAYDYWGQGTQVTLSS | low polyreactivity |
| QVQLVESGGGLVQAGGSLRLSCAASGRTFEYYAMGWYRQAPGKERELVAAIDSGGSTNYADSVKGRFTISRDNAKNTVYLQMNSLKPEDTAVYYCATEVDQNYNYDYWGQCTQVTVSS | low polyreactivity |
| QVQLVESGGGLVQAGGSLRLSCAASGITLWQYAMGWYRQAPGKERELVAGITDTGDSTYYADSVKGRFTISRDNAKNTVYLQMNSLKPEDTAVYYCAVPRSALLRAPYELYSWGQGTQVTVSS | low polyreactivity |
| QVQLVESGGGLVQAGGSHRLSCAASGSIFYYYTMGWYRQAPGKERELVASITGGGSTYYADSVKGRFTISRDHAKNTVYLQMNSLKPEDTAVYYCAAYSLRPRWRREYDYWGQGTQVTVSS | high polyreactivity |

| Sequence | polyreactivity (PSR sort gate) |
| --- | --- |
| QVQLVESGGGLVQAGGSLRLSCAASGRIFTHNVMGWYRQAPGKERELVAAISGGGGSTYYADSVKGRFTISRDNAKNTVYLQMNSLKPEDTAVYYWAAVGFGRQGQEDYWGQGTHVTVSS | low polyreactivity |
| QVQLVESGGGLVQAGGSLRLSCAASGRILWYYAMGWYRQAPGKERELVASISWSGGRTYYADSVKGRFTISRDNAKNTVYLQMNSLKPEDTAVYYCAAQLTRWRKPGDMEYWGQGTQVTVSS | high polyreactivity |
| QVQLVESGGGLVQAGGSLRLSCAASGFTFSGNVMGWYRQAPGKERELVAGISRSGSSTSYADSVKGRFTISRDNAKNTVYLQMNSLKPEDTAVYYCNKVKRSYYYVDTDYWGQGTQVTVSS | high polyreactivity |
| KVQIVESGGGLVQAGGSLRLSCAASGRTFVVNGMGRYRQAPGKDRELVAAINTSGGSTHYADSVKGRITISRDNAKNTVYLQMNILKPEDTAVYYCAAVGYWRDYSGYWDYYYIYDYWGQGTQVNVSS | low polyreactivity |
| QVQLVESGGGLVQAGGSLRLSCAASGNTFYVYAMGWYRQAPGKERELVADITWSGGSTYYADSVKGRFTISRDNAKNTVYLQMNSLKPEDTAVYYCNADYYYQLWELEYYYWGQGTQVTVSS | high polyreactivity |
| QVQLVESGGGLVQAGGSLRLSCAASGFIFRYYAMGWYRQAPGKERELVASISYSGGTTYYADSVKGRFTISRDNAKNTVYLQMNSLKPEDTAVYYCNVYSRTHYQTYTDDYWGQGTQVTVSS | high polyreactivity |
| QVQLVESGGGLVQAGGSLRLSCAASGSTYRVKAMGWYRQAPGKEREFVAAITRGGSTNYADSVKGRFTISRDNAMNTVYLQMNSLKPEDTAVYYCATAYRGRAWGYVYWGQGTQVTVSS | high polyreactivity |
| QDQLVESGGGLVQAGGSLRLICAASGRIFNVYAMGWYRQAPGKERELVAAISWRGGNTYYADSVKGRFTISRDNAKNTVYLQMNSLKPEDTAVYYCAAVYRGYDYWGQGTQVTVSS | high polyreactivity |
| QVQLVESGGGLVQAGGSLRLSCAASGFTFDYYAMGWYRQAPGKERELVATITSGGRTNYADSVKGRFTLSRDNAKNTVYLQMNSLNPEDTAVYYCAVDWWNVEYFYSATSGDYWGQGTQVTVSS | low polyreactivity |
| QVQLVESGGCLVQAGGSLRLTCAASGFIFYRYAMGWYRHAPGKESELVAAISKSGSSTYYADSVKGRFTISRDNAKNTVYLQMNSLKPEDTAVYYCARDRQSRSLLEDDYWGQGTQVTVSS | high polyreactivity |
| QVQLVESGGGLVQAGGSLRLSCAASGLNFYYYAMGWYRQAPGKERELVATISSRGGSTNYADSVKGRFTISRDNAKNTVYLQMNSLKPEDTAVYYCAADRRARVWTYRSYDYWGQGTQVTVSS | high polyreactivity |
| QVHRVESGGGLVQAGGCLRLSCAASGRTFARYVMGGYRQAPGKERELVAAINSGGTTYYADSVKGRFTISRDNAKNTVYLQMNSLKPEDTAVYYCNGRRGHYAYDYWGQGTQVTVSS | high polyreactivity |
| QVQLVESGGGLVQAGGSLRLSCAASGSTFEHYTMGWYRQAPGKERELVAAINGRGGSTYYADSVKGRFTISRDNAKNTVYLQMNSLKPEDTAVYYCAAVYGFRDYDYWGQGTQVTVSS | high polyreactivity |
| QDQLVESGGGLVQAGGSLRLSCAASGGTFTVYAMGWYRQAPGKERELVATINWSRGSTYYADSVKGRFTISRDNAKNTVYLQMKSLKPEDNAVYYCNAAWQYKSVEYWGQGTQVTVSS | low polyreactivity |
| QVQLVESGGGLVQAGGSLRLSCAASGRTFTHYDMGWYRQAPGKERELVAAISSGCGTYYADSVKGRFTISRDNAKNTVYLQMNSLKPEDTAVYYCNADYTNYHDPFRTYGYWGQGTQVTVSS | low polyreactivity |
| QVQLVESGGGLVQAGGSLRLSCAASGFIFNRYAMGWYRQAPGKERELVATITRRGGRTYFADSVKGRFTISRDNAKNTVYLQMNSLKPEDTAVYYCNADPNVPVETFDYWGQGTQVTVSS | high polyreactivity |
| QVQLVESGGGLVQAGGSLRLSCAASGSTFYSNAMGWYRQAPRKERELVASISWSSGSTYYADSVKGRFTISRDNAKNTVYLQMNSLKPEDTAVYYCATDAGGPYRFGYWGQGTQVTVSS | low polyreactivity |
| QVQLVETGGGLVHAGGSLRLSCAASGRTFEPNAMGWYRQAPGKERELVATISYSGGRTNYADSVKGRFTISRDNAKNTVYLQMKILKPEDTAVYYCATRTYYRRVCIRDFWGQGTLVTVSS | high polyreactivity |
| QDQHVESGGGLVQAGGSLRLSCAASGRTFRLYAMGWYRQAPGKERELVAAITRGGRTNYADSVKGRFTISRDNAKNTVYLQMNSLKPEDTAVYYCAARYVERHTDYYYWGQGTQVTVSS | low polyreactivity |
| QVQLVESGGGLVQAGGSLPLSCASSGFTLVTYAMGWYRQAPGKERELVAAISSSGTSTYYADSVKARFTISRDNAKNTVYLQMNSLKPEDTAVYYCAVDDTHPFGPDGGGDYWGQGTQVTVSS | low polyreactivity |
| QVQLVESGGGLVQAGGSLRLSCAASGSTFKYNAMGWYRQAPGKERELVASISRSGGSTYYADSVKGRFTISRDNAKNTVYLQMNSLKPEDTAVYYCNVRRFVHYEYWGQGTQVTVSS | high polyreactivity |
